Laboratory results published in article PMC3456991 (Journal of molecular biology, 2012).
Like-named read-outs stand apart in the source and are kept apart here.

B1: Fis1ΔTM (1-126) without a linker or affinity tag, for NMR (domain or fragment, Saccharomyces cerevisiae, UniProt P40515 1-126, looked up)
chain: MTKVDFWPTLKDAYEPLYPQQLEILRQQVVSEGGPTATIQSRFNYAWGLIKSTDVNDERLGVKILTDIYKEAESRRRECLYYLTIGCYKLGEYSMAKRYVDTLFEHERNNKQVGALKSMVEDKIQK
B2: Fis1ΔTM-C79S/C87S (domain or fragment, Saccharomyces cerevisiae)
chain: MMTKVDFWPTLKDAYEPLYPQQLEILRQQVVSEGGPTATIQSRFNYAWGLIKSTDVNDERLGVKILTDIYKEAESRRRESLYYLTIGSYKLGEYSMAKRYVDTLFEHERNNKQVGALKSMVEDKIQKE
B3: Fis1ΔTM (1-127), wild type cytoplasmic domain of yeast Fis1 (domain or fragment, Saccharomyces cerevisiae)
chain: MMTKVDFWPTLKDAYEPLYPQQLEILRQQVVSEGGPTATIQSRFNYAWGLIKSTDVNDERLGVKILTDIYKEAESRRRECLYYLTIGCYKLGEYSMAKRYVDTLFEHERNNKQVGALKSMVEDKIQKE
B4: Fis1ΔTM-3 (E78D/I85T/Y88H) (domain or fragment, Saccharomyces cerevisiae)
chain: MMTKVDFWPTLKDAYEPLYPQQLEILRQQVVSEGGPTATIQSRFNYAWGLIKSTDVNDERLGVKILTDIYKEAESRRRDCLYYLTTGCHKLGEYSMAKRYVDTLFEHERNNKQVGALKSMVEDKIQKE
B5: Fis1ΔTM-A72P (domain or fragment, Saccharomyces cerevisiae)
chain: MMTKVDFWPTLKDAYEPLYPQQLEILRQQVVSEGGPTATIQSRFNYAWGLIKSTDVNDERLGVKILTDIYKEPESRRRECLYYLTIGCYKLGEYSMAKRYVDTLFEHERNNKQVGALKSMVEDKIQKE

Tests used:
[1] = target: the molecule itself; assay: NMR chemical shift comparison of monomer and dimer
[2] = target: the molecule itself; assay: SEC
[3] = target: the molecule itself; assay: SEC-MALS
[4] = target: the molecule itself; assay: SEC; remark: listed apart in the source
[5] = target: the molecule itself; assay: SEC; remark: listed apart in the source

Row | Protein | binding result [2] | Kd [4] | further results
1 | B1 |  |  | binding result [1]: binds
2 | B2 | binds |  | 
3 | B3 |  | 15 ± 3 µM | stoichiometry N [3]: 2; Kd [5]: 0.24 ± 0.08 µM
4 | B4 | binds |  | 
5 | B5 |  | ≥ 3000 µM | 
